For one substance, percent of target cells bound results are on record in PMC6333426.

This assay addresses Tsx nucleoside transporter of E. coli, on target cells (E. coli) (UniProt P0A927). Nature of the assay: flow cytometry on cells. (In flow cytometry, cells or beads pass a laser one at a time.)
Chain of UniProt P0A927 (P0A927 23-294): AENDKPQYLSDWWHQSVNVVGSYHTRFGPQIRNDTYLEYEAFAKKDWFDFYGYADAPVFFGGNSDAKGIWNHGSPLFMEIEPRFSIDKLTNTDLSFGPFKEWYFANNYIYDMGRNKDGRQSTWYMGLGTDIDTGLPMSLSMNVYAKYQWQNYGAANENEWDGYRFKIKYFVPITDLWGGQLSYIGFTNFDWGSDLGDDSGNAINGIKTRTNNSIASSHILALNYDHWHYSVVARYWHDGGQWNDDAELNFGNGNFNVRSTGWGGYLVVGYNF

For “CdiA^STECO31 (CdiA from Escherichia coli STEC_O31), wild type, A0A1S4NYE3 33-3253”, the percent of target cells bound amounted to 80%.
